# From the RNAGym collection of RNA variant scans (doi:10.7554/elife.80360)
# B1: Hairpin Ribozyme (parent)
# chain: GUCCUCUUUCACGUGCGCGUGAAAGAGAGAAGUGAACCAGAGAAACACACGUUGUGGUAUAUUACCUGGUA
# Variants of: B1
# Test: self-cleavage, relative activity (ratio to wild type); higher = more cleavage; co-transcriptional
row,Variant,self-cleavage
1,GUCCUCUUUCACGUUCGCGUGAAAGAGAGAAGUGAAACAGAGAAACACACGUUGUGGUAUAUUACCUGGUA,0.386
2,GUCCUCUUUCACGUUCGCGUGAAAGAGAGAAGUGAAGCAGAGAAACACACGUUGUGGUAUAUUACCUGGUA,0.339
3,GUCCUCUUUCACGUUCGCGUGAAAGAGAGAAGUGAAUCAGAGAAACACACGUUGUGGUAUAUUACCUGGUA,0.784
4,GUCCUCUUUCACGUGAGCAUGAAAGAGAGAAGUGAACCAGAGAAACACACGUUGUGGUAUAUUACCUGGUA,0.991
5,GUCCUCUUUCACGUUCGCGUGAAAGAGAGAAGUGAACCAGAGAAACACACGUAGUGGUAUAUUACCUGGUA,1.16
6,GUCCUCUUUCACGUUCGCGUGAAAGAGAGAAGUGAACCAGAGAAACACACGUCGUGGUAUAUUACCUGGUA,1.04
7,GUCCUCUUUCACGUUCGCGUGAAAGAGAGAAGUGAACCAGAGAAACACACGUUGUGGUAUAUUAGCUGGUA,0.244
8,GUCCUCUUUCACGUUCGCGUGAAAGAGAGAAGUGAACCAGAAAAACACACGUUGUGGUAUAUUACCUGGUA,0.207
9,GUCCUCUUUCACGUGAGCGUGAAAGAGAGAAGUGAACCAGAGAAACCCACGUUGUGGUAUAUUACCUGGUA,0.365
10,GUCCUCUUUCACGUGAGCGUGAAAGAGAGAAGUGAACCAGAGAAACUCACGUUGUGGUAUAUUACCUGGUA,0.0731
11,GUCCUCUUUCACGUUCCCGUGAAAGAGAGAAGUGAACCAGAGAAACACACGUUGUGGUAUAUUACCUGGUA,0.881
12,GUCCUCUUUCACGUUCGCGUGAAAGAGAGAAGUGAACCAGAGAAACACACGUUGUGGUAUAUUACCUAGUA,0.387
13,GUCCUCUUUCACGUUCGCGUGAAAGAGAGAAGUGAACCAGAGAAACACACGUUGUGGUAUAUUACCUUGUA,0.329
14,GUCCUCUUUCACGUGAGCGUGAAAGAGAGAAGUGAACCAGAGAGACACACGUUGUGGUAUAUUACCUGGUA,0.153
15,GUCCUCUUUCACGUUCGCGUGAAAGAGAGAAGUGAACCAGAGAAACACACGUUGUGGUAUAUUACCUGGUU,0.923
16,GUCCUCUUUCACGUUCGCGUGAAAGAGAGAAGUGAACCAGAGAAACACACGUUGUUGUAUAUUACCUGGUA,0.0866
17,GUCCUCUUUCACGUUCGGGUGAAAGAGAGAAGUGAACCAGAGAAACACACGUUGUGGUAUAUUACCUGGUA,1.02
18,GUCCUCUUUCACGUUCGCGUGAAAGAGAGAAGUGAACCAGAGAAACACACUUUGUGGUAUAUUACCUGGUA,1.22
19,GUCCUCUUUCACGUUCGCGUGAAAGAGAGAAGUGAACCAGAGAAACACACAUUGUGGUAUAUUACCUGGUA,0.948

row,Variant,self-cleavage
1,GUCCUCUUUCACGUUCGCGUGAAAGAGAGAAGUGAACCAGAGAAACACACCUUGUGGUAUAUUACCUGGUA,1.08
2,GUCCUCUUUCACGUGAGCGUGAAAGAGAGAAGUGAACCAGAGUAACACACGUUGUGGUAUAUUACCUGGUA,0.0656
3,GUCCUCUUUCACGUUCGCGUGAAAGAGAGAAGUGAACCAGAGAAACACACGCUGUGGUAUAUUACCUGGUA,0.911
4,GUCCUCUUUCACGUUCGCGUGAAAGAGAGAAGUUAACCAGAGAAACACACGUUGUGGUAUAUUACCUGGUA,1.46
5,GUCCUCUUUCACGUUCGCGUGAAAGAGAGAAGUGAACCAGAGAAACACACGUUGUGGGAUAUUACCUGGUA,0.711
6,GUCCUCUUUCACGUUCGCGUGAAAGAGAGAAGUGAACCAGAGAAACACACGUUGUGGUAUAUUACGUGGUA,0.183
7,GUCCUCUUUCACGUGAGCGUGAAAGUGAGAAGUGAACCAGAGAAACACACGUUGUGGUAUAUUACCUGGUA,0.607
8,GUCCUCUUUCACGUUCGCGUGAAAGAGAGAAGUGAACCAGAGAAAUACACGUUGUGGUAUAUUACCUGGUA,0.187
9,GUCCUCUUUCACGUGAGCGUGAAAGAGAGACGUGAACCAGAGAAACACACGUUGUGGUAUAUUACCUGGUA,0.0433
10,GUCCUCUUUCACGUGAGCGUGAAAGAGAGAAGUGAACCAGAGAAACACACGUUGUGGUAUAUUCCCUGGUA,0.133
11,GUCCUCUUUCACGUUCGCGUGAAAGAGAGAAGUGAACCAGAGAAACACACGUUGUGAUAUAUUACCUGGUA,0.153
12,GUCCUCUUUCACGUUCGCGUGAAAGAGAGAAGUGAACCAGAGAAACACACGUUGUGUUAUAUUACCUGGUA,0.296
13,GUCCUCUUUCACGUUCGCGUGAAAGAGAGAAGUGAACCAGAGAAACACACGUUGUGGUAUAUUACCCGGUA,0.267
14,GUCCUCUUUCACGUGAGCGUGAAAGAGAGAAGUGAACCAGAGAACCACACGUUGUGGUAUAUUACCUGGUA,0.123
15,GUCCUCUUUCACGUGAGCGUGAAAGAGAGAAGUGAACCAGAGAAGCACACGUUGUGGUAUAUUACCUGGUA,0.115
16,GUCCUCUUUCACGUUCGCGUGAAAGAGAGAACUGAACCAGAGAAACACACGUUGUGGUAUAUUACCUGGUA,0.122
17,GUCCUCUUUCACGUGAGCGUGAAAGAGAGAAGUGAGCCAGAGAAACACACGUUGUGGUAUAUUACCUGGUA,1.1
18,GUCCUCUUUCACGUGAGCGUGAAAGAGAGAAGUGAUCCAGAGAAACACACGUUGUGGUAUAUUACCUGGUA,0.554
19,GUCCUCUUUCACGUGAGCGUGAAAGAGAGAAGUGAACCAGAGAAACAGACGUUGUGGUAUAUUACCUGGUA,0.155
